# Residue numbers refer to the chain shown, from its start.
# B1: IGF11-16 with alanine substitution of S at position 54 (CDR-H2) (antibody, mouse IgG1, V domains shown)
# VH: QIQLQQPGAELVKPGASVKLSCKAPGYTFTSYWMHWVKQRPGQGLEWIGETNPANSVTNYNEKFKSKATLTVDKSSSTAYMQLSSLTSEDSAVYYCTIGRGRGFAYWGQGTLVTVSA
# VL: DIQMNQSPSSLSASLGDTITITCRASQNINFWLSWCQQKPGNIPKLLIYKASNLHTGVPSRFSGSGSGTDFTLTISSLQPEDIATYYCLQGQSYPYTFGGGTKLEIK
# B2: IGF11-16 with alanine substitution of N at position 55 (CDR-H2) (antibody, mouse IgG1, V domains shown)
# VH: B1 VH with A54S, N55A
# VL: B1 VL
# B3: IGF11-16 with alanine substitution of S at position 56 (CDR-H2) (antibody, mouse IgG1, V domains shown)
# VH: B1 VH with A54S, S56A
# VL: B1 VL
# B4: IGF11-16 with alanine substitution of N at position 59 (CDR-H2) (antibody, mouse IgG1, V domains shown)
# VH: B1 VH with A54S, N59A
# VL: B1 VL
# B5: IGF11-16 with alanine substitution of F at position 64 (CDR-H2) (antibody, mouse IgG1, V domains shown)
# VH: B1 VH with A54S, F64A
# VL: B1 VL
# B6: IGF11-16 with alanine substitution of R at position 102 (CDR-H3) (antibody, mouse IgG1, V domains shown)
# VH: B1 VH with A54S, R102A
# VL: B1 VL
# B7: mouse parent antibody IGF11-16 (antibody, mouse IgG1, kappa, V domains shown)
# VH: B1 VH with A54S
# VL: DIQMNQSPSSLSASLGDTITITCRASQNINFWLSWCQQKPGNIPKLLIYKASNLHTGVPSRFSGSGSGTDFTLTISSLQPEDIATYYCLQGQSYPYTFGGGTKLEIKR
# B8: FW1_var1 antibody (antibody, V domains shown)
# VH: QVQLVQSGAEVKKPGASVKVSCKASGYTFTSYWMHWVRQAPGQGLEWMGETNPSNSVTNYAQKFQGRVTLTVDTSTSTAYMELSSLRSEDTAVYYCTIGRGRGFAYWGQGTLVTVSS
# VL: B1 VL with N5T, L11V, L15V, T18R, I19V, N42K, I83F
# B9: FW1_var9-hH1a (antibody, V domains shown)
# VH: B8 VH with V2I
# VL: B1 VL with N5T, L11V, L15V, T18R, I19V, C36Y, N42K, I43A, I83F
# B10: FW1_var9-hH2a (antibody, V domains shown)
# VH: B8 VH with V5Q
# VL: B1 VL with N5T, L11V, L15V, T18R, I19V, C36Y, N42K, I43A, I83F
# B11: FW1_var9-hH3a (antibody, V domains shown)
# VH: B8 VH with S7P
# VL: B1 VL with N5T, L11V, L15V, T18R, I19V, C36Y, N42K, I43A, I83F
# B12: FW1_var9-hH4a (antibody, V domains shown)
# VH: B8 VH with V11L
# VL: B1 VL with N5T, L11V, L15V, T18R, I19V, C36Y, N42K, I43A, I83F
# B13: FW1_var9-hH5a (antibody, V domains shown)
# VH: B8 VH with K12V
# VL: B1 VL with N5T, L11V, L15V, T18R, I19V, C36Y, N42K, I43A, I83F
# B14: FW1_var9-hH6a (antibody, V domains shown)
# VH: B8 VH with V20L
# VL: B1 VL with N5T, L11V, L15V, T18R, I19V, C36Y, N42K, I43A, I83F
# B15: FW1_var9-hH7a (antibody, V domains shown)
# VH: B8 VH with S25P
# VL: B1 VL with N5T, L11V, L15V, T18R, I19V, C36Y, N42K, I43A, I83F
# B16: FW1-var9-mFR-H1 (antibody, V domains shown)
# VH: B8 VH with V2I, V5Q, S7P, V11L, K12V, V20L, S25P
# VL: B1 VL with N5T, L11V, L15V, T18R, I19V, C36Y, N42K, I43A, I83F
# B17: FW1-var9-mFR-H2 (antibody, V domains shown)
# VH: B8 VH with R38K, A40R, M48I
# VL: B1 VL with N5T, L11V, L15V, T18R, I19V, C36Y, N42K, I43A, I83F
# B18: FW1-var9-mFR-H3 (antibody, V domains shown)
# VH: B8 VH with T74K, T76S, E82Q, R87T, T91S, S117A
# VL: B1 VL with N5T, L11V, L15V, T18R, I19V, C36Y, N42K, I43A, I83F
# B19: FW1-var9-mFR-L1 (antibody, V domains shown)
# VH: B8 VH
# VL: B1 VL with C36Y, N42K, I43A, I83F
# B20: FW1-var9-mFR-L2 + L3 (antibody, V domains shown)
# VH: B8 VH
# VL: B1 VL with N5T, L11V, L15V, T18R, I19V, C36Y
# B21: IGF11-16 with alanine substitution of W at position 32 (CDR-L1) (antibody, V domains shown)
# VH: B1 VH with A54S
# VL: B1 VL with W32A
# B22: FW1_var10_NEKS (antibody, human IgG4, V domains shown)
# VH: B8 VH with A61N, Q62E, Q65K, G66S, V93T
# VL: B1 VL with N5T, L11V, L15V, T18R, I19V, C36Y, N42K, I43A, I83F
# B23: FW1_var14_NEKS (antibody, human IgG4, V domains shown)
# VH: B8 VH with A61N, Q62E, Q65K, G66S, V93T
# VL: B1 VL with N5T, L11V, L15V, T18R, I19V, C36Y, N42K, I43A, K45R, I83F
# Molecular target: T1, IGF-1 receptor on the cells of the PathHunter IGF1R Functional Assay (DiscoverX) (UniProt P08069 31-1367)
# T1 sequence (P08069 31-1367): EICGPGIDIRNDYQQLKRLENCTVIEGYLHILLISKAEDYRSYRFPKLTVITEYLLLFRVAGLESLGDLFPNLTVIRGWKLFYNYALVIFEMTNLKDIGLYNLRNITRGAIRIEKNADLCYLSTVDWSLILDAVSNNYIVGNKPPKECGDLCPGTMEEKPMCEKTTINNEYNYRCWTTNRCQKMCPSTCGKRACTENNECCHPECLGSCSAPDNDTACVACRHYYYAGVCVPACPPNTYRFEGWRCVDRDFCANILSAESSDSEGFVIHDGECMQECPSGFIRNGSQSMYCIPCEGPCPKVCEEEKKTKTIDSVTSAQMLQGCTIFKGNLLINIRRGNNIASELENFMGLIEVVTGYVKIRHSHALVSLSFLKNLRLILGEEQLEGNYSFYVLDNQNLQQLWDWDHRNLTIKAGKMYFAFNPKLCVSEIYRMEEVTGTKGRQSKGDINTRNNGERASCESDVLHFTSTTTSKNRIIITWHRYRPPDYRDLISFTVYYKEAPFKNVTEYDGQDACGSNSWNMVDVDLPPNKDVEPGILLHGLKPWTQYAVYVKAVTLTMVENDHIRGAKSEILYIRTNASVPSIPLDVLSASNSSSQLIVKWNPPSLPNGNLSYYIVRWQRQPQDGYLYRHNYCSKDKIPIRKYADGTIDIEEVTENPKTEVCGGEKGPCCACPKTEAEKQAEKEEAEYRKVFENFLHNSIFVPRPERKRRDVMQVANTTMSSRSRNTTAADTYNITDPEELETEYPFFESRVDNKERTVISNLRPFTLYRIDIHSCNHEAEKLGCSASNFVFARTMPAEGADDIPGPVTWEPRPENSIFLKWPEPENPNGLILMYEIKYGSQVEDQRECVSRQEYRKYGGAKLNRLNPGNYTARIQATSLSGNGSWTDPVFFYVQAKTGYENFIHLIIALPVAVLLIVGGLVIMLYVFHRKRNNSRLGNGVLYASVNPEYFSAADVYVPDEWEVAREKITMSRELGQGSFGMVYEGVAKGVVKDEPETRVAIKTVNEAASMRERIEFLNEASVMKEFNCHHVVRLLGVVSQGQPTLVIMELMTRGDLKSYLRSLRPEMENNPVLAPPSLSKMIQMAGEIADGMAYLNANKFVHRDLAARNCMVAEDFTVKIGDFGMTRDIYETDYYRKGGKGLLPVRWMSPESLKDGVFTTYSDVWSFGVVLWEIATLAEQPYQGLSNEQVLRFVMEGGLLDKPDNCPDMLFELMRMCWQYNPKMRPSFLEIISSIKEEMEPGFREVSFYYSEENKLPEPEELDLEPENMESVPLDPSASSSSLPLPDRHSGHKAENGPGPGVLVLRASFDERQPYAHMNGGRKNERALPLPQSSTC
# Assay: cell-based or functional assay
Binder,"Signal activation EC50 vs IGF11-16, PathHunter","Signal activation Emax vs IGF11-16, PathHunter"
B1,2.5 ratio vs IGF11-16,1 ratio vs IGF11-16
B2,3 ratio vs IGF11-16,1 ratio vs IGF11-16
B3,2.9 ratio vs IGF11-16,1.1 ratio vs IGF11-16
B4,2.3 ratio vs IGF11-16,0.9 ratio vs IGF11-16
B5,2.4 ratio vs IGF11-16,0.9 ratio vs IGF11-16
B6,54.4 ratio vs IGF11-16,4.8 ratio vs IGF11-16

# Molecular target: T1, IGF-1 receptor on the cells of the …
# Assay: cell-based or functional assay
# Remark: another data set of the same source
row,Binder,"Signal intensity ratio (compared to IGF11-16) at 16.7 nM, PathHunter"
1,B7,1 ratio to IGF11-16
2,B8,0.66 ratio to IGF11-16
3,B9,0.7 ratio to IGF11-16
4,B10,0.54 ratio to IGF11-16
5,B11,0.6 ratio to IGF11-16
6,B12,0.65 ratio to IGF11-16
7,B13,0.56 ratio to IGF11-16
8,B14,0.55 ratio to IGF11-16
9,B15,1.09 ratio to IGF11-16

# Molecular target: T1, IGF-1 receptor on the cells of the …
# Assay: cell-based or functional assay
# Remark: another data set of the same source
row,Binder,"Signal intensity (ratio to IGF11-16) at 16.7 nM, PathHunter"
1,B16,1.08 ratio to human chimeric IGF11-16
2,B17,0.51 ratio to human chimeric IGF11-16
3,B18,0.7 ratio to human chimeric IGF11-16
4,B19,0.51 ratio to human chimeric IGF11-16
5,B20,0.5 ratio to human chimeric IGF11-16

# Molecular target: T1, IGF-1 receptor on the cells of the …
# Assay: cell-based or functional assay
# Remark: another data set of the same source
Binder,"Signal activation EC50 vs IGF11-16, PathHunter","Signal activation Emax vs IGF11-16, PathHunter"
B21,9.5 ratio vs IGF11-16,1.5 ratio vs IGF11-16

# Molecular target: T1, IGF-1 receptor on the cells of the …
# Assay: cell-based or functional assay
# Remark: another data set of the same source
Binder,"Activation intensity (RLU), PathHunter","Fluorescence intensity (0.1 nM) (RLU), PathHunter","Fluorescence intensity (12.5 nM) (RLU), PathHunter","Ratio of activation intensity, PathHunter"
B7,3570 RLU,230 RLU,3800 RLU,1 relative to IGF11-16
B8,2270 RLU,209 RLU,2480 RLU,0.64 relative to IGF11-16
B22,1960 RLU,223 RLU,2190 RLU,0.55 relative to IGF11-16
B23,1740 RLU,221 RLU,1960 RLU,0.49 relative to IGF11-16

# Molecular target: T1, IGF-1 receptor on the cells of the …
# Assay: cell-based or functional assay
# Remark: another data set of the same source
Binder,"Activation intensity (RLU), PathHunter","Fluorescence intensity (0.1 nM) (RLU), PathHunter","Fluorescence intensity (12.5 nM) (RLU), PathHunter","Ratio of activation intensity, PathHunter"
B7,2180 RLU,557 RLU,2730 RLU,1 relative to IGF11-16
B8,1600 RLU,555 RLU,2160 RLU,0.74 relative to IGF11-16

# From US20250263489A1 (TEIJIN PHARMA, published 2025)
